Experimental findings from publication PMC3102065 are described below.

Several values for one entry are separate records, joined by “and”; a condition that tells them apart may be missing. Identical values can stand only once.

For the test, the target named is HSP90N (human HSP90 isoform that lacks the N-terminal ATPase domain) (human) (UniProt P07900). Description: AUC; sedimentation velocity of fractions from the S-300 column, 0.3 mg/ml in 100 mM Tris-HCl, 45,000 rpm, 20°C, c(s) distribution (SEDFIT).

Turning to “HSP90N (human HSP90 isoform that lacks the N-terminal ATPase domain) (from UniProt P07900-1 224-732) (natural protein)”, the stoichiometry N was 2 and 4 and 6.
